Experimental data published in patent US20220242969A1 (FREDAX, published 2022).

B1: h5A10-DFO (antibody, human IgG1, kappa, V domains shown)
VH: QVTLKESGPALVKPTQTLTLTCTFSGFSLSTTGMGVSWIRQPPGKALEWLAHIYWDDDKRYSTSLKTRLTISEDSSKNQVVLTMTNMDPVDTATYYCARKGYYGYFDYWGQGTLVTVSS
VL: DIQMTQSPSSLSASVGDRVTVTCRASQNVNTDVAWYQQKPGKAPKALIFSTSYLQSGVPSRFSGSGSGTDFTLTISSLQPEDFATYYCQQYSNYPLTFGQGTKVEIKR
modifications: DFO (deferoxamine) chelator conjugated to the antibody; sites and chain not stated
notes: Humanised 5A10 IgG1/kappa conjugated with the chelator DFO; also called h5A10-DFO (141203)
B2: humanised monoclonal antibody 5A10 (h5A10) (antibody, human IgG1, kappa, V domains shown)
VH: B1 VH
VL: B1 VL
notes: also called hu5A10 (141203); h5A10 (141203)
B3: h5A10-DOTA (antibody, human IgG1, kappa, V domains shown)
VH: B1 VH
VL: B1 VL
modifications: DOTA chelator conjugated to the antibody; sites and chain not stated
notes: Humanised 5A10 IgG1/kappa conjugated with the chelator DOTA; also called h5A10-DOTA (141211)
B4: h5A10-DTPA (antibody, human IgG1, kappa, V domains shown)
VH: B1 VH
VL: B1 VL
modifications: DTPA chelator conjugated to the antibody; sites and chain not stated
notes: Humanised 5A10 IgG1/kappa conjugated with the chelator DTPA; also called h5A10-DTPA (141203); DTPA-h5A10

Each binder was assayed against T1, prostate specific antigen (PSA) (human, UniProt P07288 25-261, limits assumed) (assay: SPR (Biacore 3000), PSA amine-coupled on CM4 chip, antibody in solution).
T1 construct: The antigen of the SPR study is only called 'PSA' (169 ug/ml, provided by Diaprost AB, Mw 30 000 Da); also called kallikrein III
Description: All binding experiments were performed on CM4 chip on a Biacore™ 3000 instrument. The chip and all the reagents needed for activation, immobilization, deactivation, binding and regeneration were purchased from GE Healthcare and used according to the guidelines from the manufacturer.
The dissociation phase data was fitted and the dissociation rate constants (koff) were estimated (see Table 1). [0279] (e) Estimation of the association rate constant (kₒₙ)
In order to estimate the association rate constants, the dissociation rate constants (Table 1) were used in the fitted equations. [0281] (f) Estimation of the dissociation constant (kD)

T1 sequence (P07288 25-261 limits assumed): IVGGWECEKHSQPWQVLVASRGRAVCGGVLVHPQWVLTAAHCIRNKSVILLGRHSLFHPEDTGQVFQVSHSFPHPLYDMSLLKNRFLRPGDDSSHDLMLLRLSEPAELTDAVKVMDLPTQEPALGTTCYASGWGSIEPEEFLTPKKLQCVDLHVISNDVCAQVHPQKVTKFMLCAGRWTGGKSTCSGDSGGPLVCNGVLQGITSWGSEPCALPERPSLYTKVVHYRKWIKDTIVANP

| Binder | Kd [pM] | koff [s⁻¹] | kon [M⁻¹ s⁻¹] |
| --- | --- | --- | --- |
| B1 | 50 | 8.3e-06 | 170000 |
| B2 | 10 | 4.8e-06 | 620000 |
| B3 | 20 | 1.17e-05 | 540000 |
| B4 | 10 | 4.8e-06 | 390000 |
